Numbered stars: 1 amine (or outer) side, 2 acyl side, 3 side chain; on linkers, the order of the positions; unused ones are H or OH. Bridge positions count the residues as written; N and C are the ends. Square brackets hold non-standard residues; d marks the D form. Side chains are listed from the residue outwards. Ends that are not written are not given here. * marks the point of attachment. C18 diacid = O=C(O)CCCCCCCCCCCCCCCCC(=O)*; γGlu = O=C(O)[C@H](CCC(=O)[*:2])N[*:1]; Aib = CC(C)(N)C(=O)O
T1: human amylin receptor (calcitonin receptor co-expressed with receptor activity modifying protein, RAMP3) (human, UniProt P30988 25-474; O60896 24-148)
T1 sequence (looked up) 1: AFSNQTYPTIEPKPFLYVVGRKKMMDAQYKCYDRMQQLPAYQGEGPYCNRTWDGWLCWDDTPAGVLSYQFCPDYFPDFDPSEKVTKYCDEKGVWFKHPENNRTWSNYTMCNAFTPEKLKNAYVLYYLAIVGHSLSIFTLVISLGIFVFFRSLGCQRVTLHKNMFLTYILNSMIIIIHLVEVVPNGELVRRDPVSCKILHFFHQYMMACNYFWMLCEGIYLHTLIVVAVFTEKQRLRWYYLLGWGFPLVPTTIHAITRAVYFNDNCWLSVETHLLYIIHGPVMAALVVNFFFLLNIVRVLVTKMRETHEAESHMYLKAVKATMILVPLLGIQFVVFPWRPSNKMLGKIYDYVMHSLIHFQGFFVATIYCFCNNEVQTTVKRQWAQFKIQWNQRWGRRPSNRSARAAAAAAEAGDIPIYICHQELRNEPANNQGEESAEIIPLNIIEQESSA
T1 sequence (looked up) 2: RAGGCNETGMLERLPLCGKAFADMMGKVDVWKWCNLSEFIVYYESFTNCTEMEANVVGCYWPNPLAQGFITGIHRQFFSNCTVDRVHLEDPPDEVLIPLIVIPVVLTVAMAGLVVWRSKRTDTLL

T2: human calcitonin receptor (human, UniProt P30988 25-474)
T2 sequence (looked up): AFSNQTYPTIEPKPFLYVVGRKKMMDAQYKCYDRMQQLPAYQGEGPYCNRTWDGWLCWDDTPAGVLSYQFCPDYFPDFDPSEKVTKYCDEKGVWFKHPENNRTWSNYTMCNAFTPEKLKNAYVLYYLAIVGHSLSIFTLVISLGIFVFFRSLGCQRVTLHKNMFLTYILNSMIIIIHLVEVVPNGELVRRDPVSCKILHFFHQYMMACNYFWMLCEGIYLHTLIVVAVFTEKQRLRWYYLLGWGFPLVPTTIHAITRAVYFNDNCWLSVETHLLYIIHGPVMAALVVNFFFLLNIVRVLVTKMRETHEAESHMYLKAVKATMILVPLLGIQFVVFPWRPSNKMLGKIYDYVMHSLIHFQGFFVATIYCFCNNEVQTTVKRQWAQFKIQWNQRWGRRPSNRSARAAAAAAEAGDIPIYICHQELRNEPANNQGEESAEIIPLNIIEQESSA


Experiments:
[1] = biological target: T1, human amylin receptor (calcitonin …); experiment: cell-based or functional assay
[2] = biological target: T2, human calcitonin receptor; experiment: cell-based or functional assay

Binder	EC50 (cAMP production) [1]	Ratio (EC50 hCTR / EC50 hAMYR3) [1]	EC50 (cAMP production) [2]
K([γGlu-C18 diacid])KCNTATCATQRLANFL[Aib]HSSNNFGPILPPTN[Aib]GSNTY-NH2 (disulfide 3-8; N-terminus assumed; SMILES CC[C@H](C)[C@H](NC(=O)[C@@H]1CCCN1C(=O)CNC(=O)[C@H](Cc1ccccc1)NC(=O)[C@H](CC(N)=O)NC(=O)[C@H](CC(N)=O)NC(=O)[C@H](CO)NC(=O)[C@H](CO)NC(=O)[C@H](Cc1c[nH]cn1)NC(=O)C(C)(C)NC(=O)[C@H](CC(C)C)NC(=O)[C@H](Cc1ccccc1)NC(=O)[C@H](CC(N)=O)NC(=O)[C@H](C)NC(=O)[C@H](CC(C)C)NC(=O)[C@H](CCCNC(=N)N)NC(=O)[C@H](CCC(N)=O)NC(=O)[C@@H](NC(=O)[C@H](C)NC(=O)[C@@H]1CSSC[C@H](NC(=O)[C@H](CCCCN)NC(=O)[C@@H](N)CCCCNC(=O)CC[C@H](NC(=O)CCCCCCCCCCCCCCCCC(=O)O)C(=O)O)C(=O)N[C@@H](CC(N)=O)C(=O)N[C@@H]([C@@H](C)O)C(=O)N[C@@H](C)C(=O)N[C@@H]([C@@H](C)O)C(=O)N1)[C@@H](C)O)C(=O)N[C@@H](CC(C)C)C(=O)N1CCC[C@H]1C(=O)N1CCC[C@H]1C(=O)N[C@H](C(=O)N[C@@H](CC(N)=O)C(=O)NC(C)(C)C(=O)NCC(=O)N[C@@H](CO)C(=O)N[C@@H](CC(N)=O)C(=O)N[C@H](C(=O)N[C@@H](Cc1ccc(O)cc1)C(N)=O)[C@@H](C)O)[C@@H](C)O) [Peptide 99 (SEQ ID NO: 99)]	3.8 nM	0.5	1.82 nM
K([γGlu-C18 diacid])KCNTATCATQRLANFL[Aib]HSSNNFGPILPPTNV[Aib]SNTY-NH2 (disulfide 3-8; N-terminus assumed; SMILES CC[C@H](C)[C@H](NC(=O)[C@@H]1CCCN1C(=O)CNC(=O)[C@H](Cc1ccccc1)NC(=O)[C@H](CC(N)=O)NC(=O)[C@H](CC(N)=O)NC(=O)[C@H](CO)NC(=O)[C@H](CO)NC(=O)[C@H](Cc1c[nH]cn1)NC(=O)C(C)(C)NC(=O)[C@H](CC(C)C)NC(=O)[C@H](Cc1ccccc1)NC(=O)[C@H](CC(N)=O)NC(=O)[C@H](C)NC(=O)[C@H](CC(C)C)NC(=O)[C@H](CCCNC(=N)N)NC(=O)[C@H](CCC(N)=O)NC(=O)[C@@H](NC(=O)[C@H](C)NC(=O)[C@@H]1CSSC[C@H](NC(=O)[C@H](CCCCN)NC(=O)[C@@H](N)CCCCNC(=O)CC[C@H](NC(=O)CCCCCCCCCCCCCCCCC(=O)O)C(=O)O)C(=O)N[C@@H](CC(N)=O)C(=O)N[C@@H]([C@@H](C)O)C(=O)N[C@@H](C)C(=O)N[C@@H]([C@@H](C)O)C(=O)N1)[C@@H](C)O)C(=O)N[C@@H](CC(C)C)C(=O)N1CCC[C@H]1C(=O)N1CCC[C@H]1C(=O)N[C@H](C(=O)N[C@@H](CC(N)=O)C(=O)N[C@H](C(=O)NC(C)(C)C(=O)N[C@@H](CO)C(=O)N[C@@H](CC(N)=O)C(=O)N[C@H](C(=O)N[C@@H](Cc1ccc(O)cc1)C(N)=O)[C@@H](C)O)C(C)C)[C@@H](C)O) [Peptide 100 (SEQ ID NO: 100)]	0.364 nM	1	0.459 nM
K([γGlu-C18 diacid])KCNTATCATQRLANFL[Aib]HSSNNFGPILPPTNVG[Aib]NTY-NH2 (disulfide 3-8; N-terminus assumed; SMILES CC[C@H](C)[C@H](NC(=O)[C@@H]1CCCN1C(=O)CNC(=O)[C@H](Cc1ccccc1)NC(=O)[C@H](CC(N)=O)NC(=O)[C@H](CC(N)=O)NC(=O)[C@H](CO)NC(=O)[C@H](CO)NC(=O)[C@H](Cc1c[nH]cn1)NC(=O)C(C)(C)NC(=O)[C@H](CC(C)C)NC(=O)[C@H](Cc1ccccc1)NC(=O)[C@H](CC(N)=O)NC(=O)[C@H](C)NC(=O)[C@H](CC(C)C)NC(=O)[C@H](CCCNC(=N)N)NC(=O)[C@H](CCC(N)=O)NC(=O)[C@@H](NC(=O)[C@H](C)NC(=O)[C@@H]1CSSC[C@H](NC(=O)[C@H](CCCCN)NC(=O)[C@@H](N)CCCCNC(=O)CC[C@H](NC(=O)CCCCCCCCCCCCCCCCC(=O)O)C(=O)O)C(=O)N[C@@H](CC(N)=O)C(=O)N[C@@H]([C@@H](C)O)C(=O)N[C@@H](C)C(=O)N[C@@H]([C@@H](C)O)C(=O)N1)[C@@H](C)O)C(=O)N[C@@H](CC(C)C)C(=O)N1CCC[C@H]1C(=O)N1CCC[C@H]1C(=O)N[C@H](C(=O)N[C@@H](CC(N)=O)C(=O)N[C@H](C(=O)NCC(=O)NC(C)(C)C(=O)N[C@@H](CC(N)=O)C(=O)N[C@H](C(=O)N[C@@H](Cc1ccc(O)cc1)C(N)=O)[C@@H](C)O)C(C)C)[C@@H](C)O) [Peptide 101 (SEQ ID NO: 101)]	0.177 nM	2	0.441 nM
K([γGlu-C18 diacid])KCNTATCATQRLANFL[Aib]HSSNNFGPILPPTNVGS[Aib]TY-NH2 (disulfide 3-8; N-terminus assumed; SMILES CC[C@H](C)[C@H](NC(=O)[C@@H]1CCCN1C(=O)CNC(=O)[C@H](Cc1ccccc1)NC(=O)[C@H](CC(N)=O)NC(=O)[C@H](CC(N)=O)NC(=O)[C@H](CO)NC(=O)[C@H](CO)NC(=O)[C@H](Cc1c[nH]cn1)NC(=O)C(C)(C)NC(=O)[C@H](CC(C)C)NC(=O)[C@H](Cc1ccccc1)NC(=O)[C@H](CC(N)=O)NC(=O)[C@H](C)NC(=O)[C@H](CC(C)C)NC(=O)[C@H](CCCNC(=N)N)NC(=O)[C@H](CCC(N)=O)NC(=O)[C@@H](NC(=O)[C@H](C)NC(=O)[C@@H]1CSSC[C@H](NC(=O)[C@H](CCCCN)NC(=O)[C@@H](N)CCCCNC(=O)CC[C@H](NC(=O)CCCCCCCCCCCCCCCCC(=O)O)C(=O)O)C(=O)N[C@@H](CC(N)=O)C(=O)N[C@@H]([C@@H](C)O)C(=O)N[C@@H](C)C(=O)N[C@@H]([C@@H](C)O)C(=O)N1)[C@@H](C)O)C(=O)N[C@@H](CC(C)C)C(=O)N1CCC[C@H]1C(=O)N1CCC[C@H]1C(=O)N[C@H](C(=O)N[C@@H](CC(N)=O)C(=O)N[C@H](C(=O)NCC(=O)N[C@@H](CO)C(=O)NC(C)(C)C(=O)N[C@H](C(=O)N[C@@H](Cc1ccc(O)cc1)C(N)=O)[C@@H](C)O)C(C)C)[C@@H](C)O) [Peptide 102 (SEQ ID NO: 102)]	0.479 nM	3	1.63 nM
K([γGlu-C18 diacid])CNTATCATQRLANFLVHSSNNFGPI[dL]PPTNVGSNTY-NH2 (disulfide 2-7) [Peptide 103 (SEQ ID NO: 103)]	0.161 nM	12	1.88 nM
K([γGlu-C18 diacid])CNTATCATQRLANFLVHSSNNFGPIL[dP]PTNVGSNTY-NH2 (disulfide 2-7) [Peptide 104 (SEQ ID NO: 104)]	0.079 nM	23	1.82 nM

— patent US20220204580A1 (AstraZeneca / MedImmune, published 2022)
